Data taken from patent publication US10023909.
Like-named read-outs stand apart in the source and are kept apart here.

Target: DNMT1 (Mus musculus) (UniProt P13864)
Conditions: 5mC and 5hmC on top strand only, SAM, 37 C, 4 h

UniProt P13864, sequence (P13864 other isoform, or with tags, fused parts or gaps): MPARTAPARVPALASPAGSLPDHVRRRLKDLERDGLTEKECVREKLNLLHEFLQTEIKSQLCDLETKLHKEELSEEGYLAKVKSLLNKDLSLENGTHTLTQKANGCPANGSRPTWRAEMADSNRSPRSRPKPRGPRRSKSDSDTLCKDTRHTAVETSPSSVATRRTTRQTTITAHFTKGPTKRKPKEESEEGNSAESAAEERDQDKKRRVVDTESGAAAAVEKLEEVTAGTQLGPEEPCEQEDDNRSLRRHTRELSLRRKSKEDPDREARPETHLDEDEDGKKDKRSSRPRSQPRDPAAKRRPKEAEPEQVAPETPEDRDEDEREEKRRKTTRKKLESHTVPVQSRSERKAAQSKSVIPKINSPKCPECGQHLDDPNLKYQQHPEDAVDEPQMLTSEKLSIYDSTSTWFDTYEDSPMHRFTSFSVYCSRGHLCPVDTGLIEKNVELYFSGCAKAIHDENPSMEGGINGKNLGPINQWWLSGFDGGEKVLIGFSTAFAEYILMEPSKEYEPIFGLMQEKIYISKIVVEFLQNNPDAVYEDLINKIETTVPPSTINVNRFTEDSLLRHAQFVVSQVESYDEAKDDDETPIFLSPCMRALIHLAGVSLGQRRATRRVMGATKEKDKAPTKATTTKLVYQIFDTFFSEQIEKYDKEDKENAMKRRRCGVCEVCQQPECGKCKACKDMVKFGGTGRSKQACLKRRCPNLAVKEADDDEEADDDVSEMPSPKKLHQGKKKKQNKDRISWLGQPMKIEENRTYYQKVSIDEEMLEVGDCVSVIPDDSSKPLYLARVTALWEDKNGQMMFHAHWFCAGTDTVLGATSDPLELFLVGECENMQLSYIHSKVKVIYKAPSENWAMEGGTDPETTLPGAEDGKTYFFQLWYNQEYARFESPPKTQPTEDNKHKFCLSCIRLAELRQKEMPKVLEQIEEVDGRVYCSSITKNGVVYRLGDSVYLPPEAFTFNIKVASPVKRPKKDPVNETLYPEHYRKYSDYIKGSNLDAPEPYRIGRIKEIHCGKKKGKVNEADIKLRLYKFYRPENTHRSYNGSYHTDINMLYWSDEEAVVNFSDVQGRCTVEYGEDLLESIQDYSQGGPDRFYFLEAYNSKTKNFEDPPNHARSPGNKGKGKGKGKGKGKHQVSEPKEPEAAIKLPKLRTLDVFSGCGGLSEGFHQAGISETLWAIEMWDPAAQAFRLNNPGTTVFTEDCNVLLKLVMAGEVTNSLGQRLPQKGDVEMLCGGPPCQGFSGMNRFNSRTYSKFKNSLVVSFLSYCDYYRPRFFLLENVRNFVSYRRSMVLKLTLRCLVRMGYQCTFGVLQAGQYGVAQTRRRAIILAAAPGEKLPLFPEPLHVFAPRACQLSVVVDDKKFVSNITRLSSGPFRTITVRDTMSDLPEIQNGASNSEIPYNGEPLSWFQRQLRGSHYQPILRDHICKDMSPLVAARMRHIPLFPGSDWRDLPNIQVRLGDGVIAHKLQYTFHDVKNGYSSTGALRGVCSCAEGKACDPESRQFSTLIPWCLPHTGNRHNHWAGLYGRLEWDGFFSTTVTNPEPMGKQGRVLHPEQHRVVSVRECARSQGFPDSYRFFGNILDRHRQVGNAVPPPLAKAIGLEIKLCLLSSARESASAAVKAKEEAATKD

Substance: 112 bp 5hmC:C:5meC top/unmodified bottom duplex, hemi-5hmC CpG site
- activity (no methylation across from 5hmC): 0%

Substance: 112 bp 5hmC:C:5meC top/unmodified bottom duplex, hemi-5meC CpG site
- activity (methylation by bisulfite sequencing (14 of 16 clones)): 87.5%

Substance: 112 bp 5hmC:C:5meC top/unmodified bottom duplex, unmodified CpG site
- activity (no methylation by bisulfite sequencing): 0%
